From patent publication US20080206264A1
Bridge positions count the residues as written; N and C are the ends. Ends that are not written are not given here.

Biological target: 447-52D Fv fragment
Experiment: fluorescence quenching of 447Fv upon titration with the peptide

B1: R5A-M1 peptide (disulfide-constrained R5A mimic peptide 1) (peptide)
peptide: CRKSIHCGPGRCFYTTGC
modifications: disulfide 1-18, 7-12
B1 gave a Kd of 10 nM.
